Data: publication PMC7144941

T1: i-mEndoG H97A (catalytically inactive mouse endonuclease G) (mouse, UniProt O08600 42-294, H138A)
T1 sequence: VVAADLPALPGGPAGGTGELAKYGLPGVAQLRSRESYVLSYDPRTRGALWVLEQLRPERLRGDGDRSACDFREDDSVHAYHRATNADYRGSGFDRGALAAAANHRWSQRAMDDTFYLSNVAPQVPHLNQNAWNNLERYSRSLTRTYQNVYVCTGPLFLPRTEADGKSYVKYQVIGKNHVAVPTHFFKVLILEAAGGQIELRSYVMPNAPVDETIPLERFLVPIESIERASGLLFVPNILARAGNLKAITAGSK


Tests used:
[1] = target: catalytically inactive H97A mutant of mouse endonuclease G lacking the N-terminal mitochondrial localization sequence (mouse); assay: crystal structure
[2] = target: T1, i-mEndoG H97A (catalytically inactive …); assay: X-ray crystallography

Molecule	stoichiometry N [1]	binding result [2]
catalytically inactive H97A mutant of mouse endonuclease G lacking the N-terminal mitochondrial localization sequence (enzyme)	2	
decanucleotide d(CCGGCGCCGG) (dsDNA) DNA 1: CCGGCGCCGG DNA 2: CCGGCGCCGG		binds
